According to publication PMC9482650, “Quantitative fragmentomics allow affinity mapping of interactomes” (Nature Communications, 2022):

How the values were obtained:
Assay in all cases: holdup assay
Set-up in all cases: key: below the threshold = too weak to quantify, mostly under pKd 3.1 to 4
LIN7B, Q9HAP6 = target: T1, LIN7B, Q9HAP6
T1 sequence (Q9HAP6 88-185, limits assumed, looked up): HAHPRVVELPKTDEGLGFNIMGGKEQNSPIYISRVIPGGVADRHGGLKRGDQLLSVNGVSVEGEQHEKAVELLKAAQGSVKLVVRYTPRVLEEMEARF

PDZD7_3, Q9H5P4 = target: T2, PDZD7_3, Q9H5P4
T2 sequence (Q9H5P4 857-944, limits assumed, looked up): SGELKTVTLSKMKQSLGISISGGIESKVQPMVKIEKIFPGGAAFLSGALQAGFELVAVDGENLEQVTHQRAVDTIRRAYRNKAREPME

MPP2, Q14168 = target: T3, MPP2, Q14168
T3 sequence (Q14168 180-250, limits assumed, looked up): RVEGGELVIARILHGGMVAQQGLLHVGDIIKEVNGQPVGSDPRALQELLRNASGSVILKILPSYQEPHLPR

LNX2_3, Q8N448 = target: T4, LNX2_3, Q8N448
T4 sequence (Q8N448 463-564, limits assumed, looked up): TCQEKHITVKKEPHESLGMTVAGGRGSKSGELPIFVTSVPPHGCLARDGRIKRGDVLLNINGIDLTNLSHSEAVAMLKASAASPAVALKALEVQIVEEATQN

NHERF4_1, Q86UT5-2 = target: NHERF4_1, Q86UT5-2
HTRA4, P83105 = target: T5, HTRA4, P83105
T5 sequence (P83105 378-476, limits assumed, looked up): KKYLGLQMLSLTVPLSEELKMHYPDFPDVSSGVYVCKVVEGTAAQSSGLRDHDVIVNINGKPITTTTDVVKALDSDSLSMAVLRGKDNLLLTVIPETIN

DVL3, Q92997 = target: T6, DVL3, Q92997
T6 sequence (Q92997 244-331, limits assumed, looked up): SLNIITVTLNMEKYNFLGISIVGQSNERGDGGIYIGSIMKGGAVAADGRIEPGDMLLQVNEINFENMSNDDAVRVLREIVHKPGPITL

MAST2, Q6P0Q8 = target: MAST2, Q6P0Q8
Inadl_8, Q8NI35 = target: Inadl_8, Q8NI35
IL16_4, Q14005 = target: IL16_4, Q14005
APBA3_1, O96018 = target: T7, APBA3_1, O96018
T7 sequence (O96018 389-490, limits assumed, looked up): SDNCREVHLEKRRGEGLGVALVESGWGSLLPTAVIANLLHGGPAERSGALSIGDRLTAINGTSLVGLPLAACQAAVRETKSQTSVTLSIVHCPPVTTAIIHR

MAGI2_5, Q86UL8 = target: MAGI2_5, Q86UL8
Inadl_1, Q8NI35 = target: Inadl_1, Q8NI35
LNX1_3, Q8TBB1 = target: LNX1_3, Q8TBB1
ARHGEF12, Q9NZN5-2 = target: ARHGEF12, Q9NZN5-2
LIN7C, Q9NUP9 = target: T8, LIN7C, Q9NUP9
T8 sequence (Q9NUP9 88-185, limits assumed, looked up): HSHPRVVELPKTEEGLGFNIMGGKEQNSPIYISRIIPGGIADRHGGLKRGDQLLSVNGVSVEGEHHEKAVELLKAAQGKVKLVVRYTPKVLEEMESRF

DLG4_1, P78352 = target: DLG4_1, P78352
Inadl_6, Q8NI35 = target: Inadl_6, Q8NI35
PDZD2_2, O15018 = target: T9, PDZD2_2, O15018
T9 sequence (O15018 329-429, limits assumed, looked up): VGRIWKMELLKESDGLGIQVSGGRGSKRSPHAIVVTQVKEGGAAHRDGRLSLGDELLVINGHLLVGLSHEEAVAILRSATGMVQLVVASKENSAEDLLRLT

FRMPD2_1, Q68DX3 = target: FRMPD2_1, Q68DX3
Inadl_3, Q8NI35 = target: Inadl_3, Q8NI35
GRID2IP_1, A4D2P6 = target: GRID2IP_1, A4D2P6
Inadl_9, Q8NI35 = target: Inadl_9, Q8NI35
GRIP1_4, Q9Y3R0 = target: T10, GRIP1_4, Q9Y3R0
T10 sequence (Q9Y3R0 467-571, limits assumed, looked up): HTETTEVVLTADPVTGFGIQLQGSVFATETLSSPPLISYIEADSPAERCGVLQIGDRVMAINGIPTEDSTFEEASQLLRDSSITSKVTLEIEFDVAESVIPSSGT

NHERF4_4, Q86UT5 = target: NHERF4_4, Q86UT5
FRMPD1, Q5SYB0 = target: T11, FRMPD1, Q5SYB0
T11 sequence (Q5SYB0 52-145, limits assumed, looked up): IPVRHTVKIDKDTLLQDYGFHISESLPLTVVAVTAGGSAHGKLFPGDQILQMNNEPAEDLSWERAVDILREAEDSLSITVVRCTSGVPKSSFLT

[1] = plain residues with an end cap or a label only (N-terminal biotin on a linker: (peg)3)
[2] = plain residues with an end cap or a label only (N-terminal biotin on a linker: ado-ado)

Sequence of MAST2, Q6P0Q8 (Q6P0Q8 1099-1202): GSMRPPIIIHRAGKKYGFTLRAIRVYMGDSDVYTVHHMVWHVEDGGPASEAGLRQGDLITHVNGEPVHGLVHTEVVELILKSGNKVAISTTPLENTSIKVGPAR
Sequence of NHERF4_1, Q86UT5-2 (Q86UT5 other isoform, or with tags, fused parts or gaps): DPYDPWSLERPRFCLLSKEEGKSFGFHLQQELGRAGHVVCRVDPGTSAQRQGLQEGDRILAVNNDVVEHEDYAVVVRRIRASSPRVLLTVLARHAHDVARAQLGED
Sequence of FRMPD2_1, Q68DX3 (Q68DX3 770-861): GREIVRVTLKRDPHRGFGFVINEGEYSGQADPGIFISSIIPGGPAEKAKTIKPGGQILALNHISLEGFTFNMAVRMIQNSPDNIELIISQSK
Sequence of MAGI2_5, Q86UL8 (Q86UL8 915-1017): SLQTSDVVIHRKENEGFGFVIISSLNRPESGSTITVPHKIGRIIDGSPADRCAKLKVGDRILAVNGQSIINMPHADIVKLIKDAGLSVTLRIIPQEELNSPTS
Sequence of Inadl_1, Q8NI35 (Q8NI35 113-229): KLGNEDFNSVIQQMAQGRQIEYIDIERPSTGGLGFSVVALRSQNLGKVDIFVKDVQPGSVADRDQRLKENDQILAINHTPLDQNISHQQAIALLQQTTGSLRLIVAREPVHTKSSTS
Sequence of Inadl_8, Q8NI35 (Q8NI35 1425-1530): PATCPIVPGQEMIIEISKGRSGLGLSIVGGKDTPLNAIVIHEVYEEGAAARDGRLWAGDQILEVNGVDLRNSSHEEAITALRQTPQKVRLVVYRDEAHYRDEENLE
Sequence of NHERF4_4, Q86UT5 (Q86UT5 464-550): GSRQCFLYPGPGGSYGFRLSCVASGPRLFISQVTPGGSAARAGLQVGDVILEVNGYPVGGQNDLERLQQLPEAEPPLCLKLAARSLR
Sequence of GRID2IP_1, A4D2P6 (A4D2P6 1-87): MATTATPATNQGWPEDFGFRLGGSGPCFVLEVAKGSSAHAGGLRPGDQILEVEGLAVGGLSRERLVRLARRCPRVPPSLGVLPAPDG
Sequence of ARHGEF12, Q9NZN5-2 (Q9NZN5 other isoform, or with tags, fused parts or gaps): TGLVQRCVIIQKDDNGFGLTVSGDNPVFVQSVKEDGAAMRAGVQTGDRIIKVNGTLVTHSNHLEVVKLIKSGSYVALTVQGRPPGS
Sequence of LNX1_3, Q8TBB1 (Q8TBB1 500-596): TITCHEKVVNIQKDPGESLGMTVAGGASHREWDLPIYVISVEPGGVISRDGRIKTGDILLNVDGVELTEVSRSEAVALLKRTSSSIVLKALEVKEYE
Sequence of Inadl_9, Q8NI35 (Q8NI35 1530-1615): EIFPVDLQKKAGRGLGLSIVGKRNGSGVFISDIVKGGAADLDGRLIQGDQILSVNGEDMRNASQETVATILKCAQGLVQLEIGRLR
Sequence of Inadl_6, Q8NI35 (Q8NI35 1058-1167): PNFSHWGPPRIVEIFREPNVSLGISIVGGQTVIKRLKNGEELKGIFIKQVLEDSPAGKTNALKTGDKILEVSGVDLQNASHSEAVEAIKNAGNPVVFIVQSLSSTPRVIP
Sequence of Inadl_3, Q8NI35 (Q8NI35 359-469): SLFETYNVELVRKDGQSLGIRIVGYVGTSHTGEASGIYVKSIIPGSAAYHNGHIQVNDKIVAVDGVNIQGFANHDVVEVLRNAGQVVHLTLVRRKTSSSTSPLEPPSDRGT
Sequence of IL16_4, Q14005 (Q14005 1229-1329): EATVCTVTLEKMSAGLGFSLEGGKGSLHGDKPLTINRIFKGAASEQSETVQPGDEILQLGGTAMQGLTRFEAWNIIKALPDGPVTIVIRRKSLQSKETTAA
Sequence of DLG4_1, P78352 (P78352 62-152): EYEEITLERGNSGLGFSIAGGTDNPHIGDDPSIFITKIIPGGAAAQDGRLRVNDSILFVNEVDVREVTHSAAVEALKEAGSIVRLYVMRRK

NLNSSEGVPDLLV [SARS-CoV-E, P59637]
pKd (LIN7B, Q9HAP6; [1]): below the threshold | pKd (PDZD7_3, Q9H5P4; [1]): below the threshold | pKd (MPP2, Q14168; [1]): below the threshold | pKd (LNX2_3, Q8N448; [1]): below the threshold | pKd (NHERF4_1, Q86UT5-2; [1]): below the threshold | pKd (HTRA4, P83105; [1]): below the threshold | pKd (DVL3, Q92997; [1]): below the threshold | pKd (MAST2, Q6P0Q8; [1]): below the threshold | pKd (Inadl_8, Q8NI35; [1]): 3.96 | pKd (IL16_4, Q14005; [1]): below the threshold | pKd (APBA3_1, O96018; [1]): below the threshold | pKd (MAGI2_5, Q86UL8; [1]): below the threshold | pKd (Inadl_1, Q8NI35; [1]): below the threshold | pKd (LNX1_3, Q8TBB1; [1]): below the threshold | pKd (ARHGEF12, Q9NZN5-2; [1]): below the threshold | pKd (LIN7C, Q9NUP9; [1]): below the threshold | pKd (DLG4_1, P78352; [1]): below the threshold | pKd (Inadl_6, Q8NI35; [1]): below the threshold | pKd (PDZD2_2, O15018; [1]): below the threshold | pKd (FRMPD2_1, Q68DX3; [1]): below the threshold | pKd (Inadl_3, Q8NI35; [1]): below the threshold | pKd (GRID2IP_1, A4D2P6; [1]): below the threshold | pKd (Inadl_9, Q8NI35; [1]): below the threshold | pKd (GRIP1_4, Q9Y3R0; [1]): below the threshold | pKd (NHERF4_4, Q86UT5; [1]): below the threshold | pKd (FRMPD1, Q5SYB0; [1]): below the threshold

QKNRKAQEDL [CES3, Q6UWW8]
pKd (LIN7B, Q9HAP6; [2]): 3.78 | pKd (PDZD7_3, Q9H5P4; [2]): below the threshold | pKd (MPP2, Q14168; [2]): below the threshold | pKd (LNX2_3, Q8N448; [2]): below the threshold | pKd (NHERF4_1, Q86UT5-2; [2]): below the threshold | pKd (HTRA4, P83105; [2]): below the threshold | pKd (DVL3, Q92997; [2]): below the threshold | pKd (MAST2, Q6P0Q8; [2]): below the threshold | pKd (Inadl_8, Q8NI35; [2]): below the threshold | pKd (IL16_4, Q14005; [2]): 3.63 | pKd (APBA3_1, O96018; [2]): below the threshold | pKd (MAGI2_5, Q86UL8; [2]): below the threshold | pKd (Inadl_1, Q8NI35; [2]): below the threshold | pKd (LNX1_3, Q8TBB1; [2]): below the threshold | pKd (ARHGEF12, Q9NZN5-2; [2]): below the threshold | pKd (LIN7C, Q9NUP9; [2]): below the threshold | pKd (DLG4_1, P78352; [2]): below the threshold | pKd (Inadl_6, Q8NI35; [2]): below the threshold | pKd (PDZD2_2, O15018; [2]): below the threshold | pKd (FRMPD2_1, Q68DX3; [2]): below the threshold | pKd (Inadl_3, Q8NI35; [2]): below the threshold | pKd (GRID2IP_1, A4D2P6; [2]): below the threshold | pKd (Inadl_9, Q8NI35; [2]): below the threshold | pKd (GRIP1_4, Q9Y3R0; [2]): below the threshold | pKd (NHERF4_4, Q86UT5; [2]): below the threshold | pKd (FRMPD1, Q5SYB0; [2]): below the threshold
